Paper PMC10980420, “Abscisic acid–induced transcription factor PsMYB306 negatively regulates tree peony bud dormancy release”

Legend:
PsMYB306 [1] = biological target: T1, PsMYB306 (Paeonia suffruticosa, UniProt A0A7M3T7P1 1-327); assay: EMSA; LightShift EMSA Optimization and Control Kit (Pierce); buffer, salt, pH and temperature not stated; settings: protein: recombinant; tags: His (pET28a, BamHI/HindIII); label: biotin (5' of strand 1 as printed, Bio-); blunt
PsMYB306 [2] = biological target: T1, PsMYB306; assay: competition; unlabeled competitor at 50- and 100-fold against N1; signal attenuated; LightShift EMSA Optimization and Control Kit (Pierce); buffer, salt, pH and temperature not stated; settings: protein: recombinant; tags: His (pET28a, BamHI/HindIII); label: none; blunt

T1 sequence (A0A7M3T7P1 entry or part of it): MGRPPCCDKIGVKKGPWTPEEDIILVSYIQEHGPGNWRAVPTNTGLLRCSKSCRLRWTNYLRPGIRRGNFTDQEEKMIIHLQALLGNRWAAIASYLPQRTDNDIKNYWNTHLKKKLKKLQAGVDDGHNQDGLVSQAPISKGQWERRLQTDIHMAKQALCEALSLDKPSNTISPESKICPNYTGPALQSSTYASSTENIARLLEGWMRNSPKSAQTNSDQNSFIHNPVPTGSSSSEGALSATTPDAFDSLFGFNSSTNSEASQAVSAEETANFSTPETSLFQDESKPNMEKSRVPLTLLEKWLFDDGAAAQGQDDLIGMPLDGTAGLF

| Binder | binding result (PsMYB306 [1]) | binding result (PsMYB306 [2]) |
| --- | --- | --- |
| pPsNCED3 mutant probe (dsDNA) DNA 1: ACTTAGGATTACTCAGCCATAACTTCCTTCTT DNA 2: AAGAAGGAAGTTATGGCTGAGTAATCCTAAGT | no binding |  |
| pPsNCED3 WT probe (dsDNA) DNA 1: ACTTAGGATTACTAGTTAATAACTTCCTTCTT DNA 2: AAGAAGGAAGTTATTAACTAGTAATCCTAAGT | binds |  |
| pPsNCED3 WT cold competitor (dsDNA) DNA 1: ACTTAGGATTACTAGTTAATAACTTCCTTCTT DNA 2: AAGAAGGAAGTTATTAACTAGTAATCCTAAGT |  | binds |
